Measurements from patent CN114397452A (dated 2022).

B1: IMCAS-72 scFv (scFv, V domains shown)
VH: QVQLVESGGGLVQPGGSLRLSCAASGFTFSSYGMHWVRQAPGKGLEWVAVISYDGSDKYYADSVKGRFTISRDNSKNTLYLQMNSLRAEDTAVYYCARDRDRFGDQGGWFDPWGQGTLVTVSS
VL: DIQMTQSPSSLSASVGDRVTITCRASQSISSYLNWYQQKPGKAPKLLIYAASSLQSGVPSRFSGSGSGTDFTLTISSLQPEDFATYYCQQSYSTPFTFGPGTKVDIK
B2: IMCAS-364 scFv (scFv, V domains shown)
VH: QVQLQESGGGVVQPGRSLRLSCAASGFTFSRYGMHWVRQAPGKGLEWVAVIWYDGSNKYYADSVKGRFTISRDNSKNTLYLQMNSLRADDTAVYYCAKQEGTYCSGGSCYSGLDYWGQGTLVTVSS
VL: not shown

Key:
冠状病毒RaTG13 RBD蛋白 = 冠状病毒RaTG13 RBD蛋白 (coronavirus RaTG13)
SARS-CoV RBD蛋白 = SARS-CoV RBD蛋白 (SARS-CoV, UniProt P59594 306-527)

Row | Binder | Kd (冠状病毒RaTG13 RBD蛋白) | Kd (SARS-CoV RBD蛋白)
1 | B1 | 6.21 nM | –
2 | B2 | – | 8.17 nM
